Legend:
MAb MSL-109 = experiment: ELISA; conditions: read off a plot
[1] = biological target: recombinant gH/gL/gO trimer (human cytomegalovirus | human cytomegalovirus strain VR1814); experiment: SPR; Biacore X100, CM5 chip, RT, 1:1 binding model; methods: antibody (4 μg/mL) captured by anti-human Fc IgG to about 100 RU, pentamer or trimer in five 2-fold dilutions injected at 30 μL/min, 90 s association, 600 s dissociation (the legend of Fig. 5 tells the reverse orientation)

| Substance | percent of parent (MAb MSL-109) [%] | Kd [1] [µM] | koff [1] [s⁻¹] | kon [1] [M⁻¹ s⁻¹] |
| --- | --- | --- | --- | --- |
| recombinant gH/gL/UL128/UL130/UL131A pentamer (wild type) gH:W168A | 3 | – | – | – |
| recombinant gH/gL/UL128/UL130/UL131A pentamer (wild type) gH:P171A | 6 | – | – | – |
| recombinant gH/gL/UL128/UL130/UL131A pentamer (wild type) gH:D446A | 46 | – | – | – |
| MAb MSL-109 (antibody) | – | 0.0207 | 0.00987 | 476000 |

Reference: paper PMC9784774
